Results published in article PMC314469, “Protein Interaction Networks by Proteome Peptide Scanning” (PLoS Biology, 2004).

T1: Rvs167 SH3 (RV167_YEAST), P39743
T1 chain: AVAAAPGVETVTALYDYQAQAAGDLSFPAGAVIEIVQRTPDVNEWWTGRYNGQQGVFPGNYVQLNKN

T2: Myo5 SH3 (MYO5_YEAST), Q04439
T2 chain: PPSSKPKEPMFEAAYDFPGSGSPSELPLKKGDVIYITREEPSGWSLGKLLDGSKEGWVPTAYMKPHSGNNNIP

T3: Yfr024 SH3 (LSB3_YEAST), P43603
T3 chain: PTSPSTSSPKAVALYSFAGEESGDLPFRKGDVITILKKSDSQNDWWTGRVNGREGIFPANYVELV

T4: Yhr016c SH3 (YSC84_YEAST), P32793
T4 chain: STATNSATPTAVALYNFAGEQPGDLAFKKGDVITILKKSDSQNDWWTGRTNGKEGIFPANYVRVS

T5: Boi1 SH3 (BOI1_YEAST), P38041
T5 chain: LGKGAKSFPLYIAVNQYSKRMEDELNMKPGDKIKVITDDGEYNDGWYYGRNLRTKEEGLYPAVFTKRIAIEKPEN

T6: Boi2 SH3 (BOI2_YEAST), P39969
T6 chain: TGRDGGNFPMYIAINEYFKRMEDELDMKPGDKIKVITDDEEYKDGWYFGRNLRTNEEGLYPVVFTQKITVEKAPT


What was measured:
Assay in all cases: SPOT array
[1] = target: T1, Rvs167 SH3 (RV167_YEAST), P39743
[2] = target: T2, Myo5 SH3 (MYO5_YEAST), Q04439
[3] = target: T3, Yfr024 SH3 (LSB3_YEAST), P43603
[4] = target: Sho1 SH3 (SHO1_YEAST), P40073
Sho1 SH3 (SHO1_YEAST), P40073, sequence (P40073 295-366): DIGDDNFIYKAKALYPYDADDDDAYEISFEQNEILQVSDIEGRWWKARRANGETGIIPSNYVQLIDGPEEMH

[5] = target: T4, Yhr016c SH3 (YSC84_YEAST), P32793
[6] = target: T5, Boi1 SH3 (BOI1_YEAST), P38041
[7] = target: T6, Boi2 SH3 (BOI2_YEAST), P39969

Binder	normalised SPOT signal, Boehringer light units (BLU); mean over the file's lines of this peptide [1]	normalised SPOT signal, Boehringer light units (BLU); mean over the file's lines of this peptide [2]	normalised SPOT signal, Boehringer light units (BLU); mean over the file's lines of this peptide [3]	normalised SPOT signal, Boehringer light units (BLU); mean over the file's lines of this peptide [4]	normalised SPOT signal, Boehringer light units (BLU); mean over the file's lines of this peptide [5]	normalised SPOT signal, Boehringer light units (BLU); mean over the file's lines of this peptide [6]	normalised SPOT signal, Boehringer light units (BLU); mean over the file's lines of this peptide [7]
VSTIRSTPSQPIHS [YDR390C 176-189]	68.8	245	177	59.8	37.4	93.9	39.1
VFYHRPAPKPPVTK [YDL028C 400-413]	90.2	9050	156	267	95	879	29.2
VKATKWPPKLPEIQ [YMR239C 193-206]	9.9	57.4	43.6	25.7	49.9	170	0.8
VEMKRKKPVRPVDI [YDR436W 385-398]	64	472	2590	66.9	152	1610	48.2
VEVDKKVPVLPMVA [YMR108W 643-656]	180	130	98.7	30.9	43.3	107	31.8
VSHSKYIPLKPIQD [YGL017W 314-327]	6.3	298	34.8	25.4	25.7	138	29.9
VHVLKYAPDEPNSL [YDR301W 1194-1207]	34.4	191	3.3	19.6	25.5	104	29.5
VKRPRLNPFLPRDE [YGL097W 70-83]	4070	1190	2420	119	348	135000	2400
VHFYKSLPQGPAPA [YDR377W 34-47]	25.6	510	90.7	5350	21.8	49.8	44.6
VDSFKYEPLAPGND [YLR335W 665-678]	35.2	134	0	22.1	15.2	0	13.5

More lines, now with the values ahead:

normalised SPOT signal, Boehringer light units (BLU); mean over the file's lines of this peptide [1]	normalised SPOT signal, Boehringer light units (BLU); mean over the file's lines of this peptide [2]	normalised SPOT signal, Boehringer light units (BLU); mean over the file's lines of this peptide [3]	normalised SPOT signal, Boehringer light units (BLU); mean over the file's lines of this peptide [4]	normalised SPOT signal, Boehringer light units (BLU); mean over the file's lines of this peptide [5]	normalised SPOT signal, Boehringer light units (BLU); mean over the file's lines of this peptide [6]	normalised SPOT signal, Boehringer light units (BLU); mean over the file's lines of this peptide [7]	Binder
71.6	534	782	71.6	32.9	1300	8.9	VKKEKKPPKIPKKV [YPR104C 435-448]
64.7	96.4	0	81	22.1	51.6	19.2	VFVEKSKPTYPGTE [YOL155C 384-397]
32.9	54	0	36.1	6.3	0	19.8	VIIGKTTPISPDEE [YOR151C 910-923]
267	213	666	51.5	128	151	108	VLFMKGTPEFPKSG [YPL059W 48-61]
12.7	157	-0	45.5	22.7	28.8	1.9	VLGPKYDPKSPEEH [YNL163C 601-614]
222	171	179	35.6	71.2	594	77.3	VEKRKFTPIEPSLL [YPL242C 332-345]
